Measurements reported in US7423021B2, “Peptidic thrombin inhibitors” (NSCI Novel Science International GmbH, priority 2003, dated 2008).
Square brackets hold non-standard residues; d marks the D form. hArg = N=C(N)NCCCC[C@H](N)C(=O)O; Cha = N[C@@H](CC1CCCCC1)C(=O)O; dCha = N[C@H](CC1CCCCC1)C(=O)O; Nle = CCCC[C@H](N)C(=O)O; Aze = O=C(O)[C@@H]1CCN1

Experiments:
thrombin [1] = conditions: literature values; cited from earlier work
thrombin [2] = target: thrombin (Homo sapiens, UniProt P00734); assay: in-vitro inhibition of the amidase activity of thrombin (fluorogenic substrate Tos-Gly-Pro-Arg-AMC); type: biochemical; parameters: 10 μl of human thrombin solution
Procedure: The values of the inhibiting constants Ki were obtained from assays in which thrombin hydrolyzes the fluorogenic substrate Tos-Gly-Pro-Arg-(7-amino-4-methylcumarin). The assays were carried out in […] of assay buffer (0.05 M tris, 0.1 M NaCl, 0.1% PEG 8000, pH 7.6) with 10 μl of human thrombin solution (10^−5 U/μl in the assay buffer) and 140 μl of a solution of the fluorogenic substrate in an assay buffer at a concentration of 30 μM. Solutions of the test compound (10 μl) were added at various concentrations. The rates of the hydrolysis of the substrate were measured by monitoring the reactions at […] of the release of 7-amino-4-methylcumarin using AMC. The reaction reached an equilibrium state within three minutes, after thrombin, the substrate, and an inhibitor were mixed. The kinetic data of the competing inhibition (Km, Vmax, and Ki) were analyzed by means of the representation according to Hanes (A/V against A at various values of A, where A is the substrate concentration and V the reaction rate).

## H-D-Phe-Pro-Arg-H
Thrombin [1]
  Ki: 70 nM

## N-acetyl-L-Nle-D-Cha-L-Aze-D-Tyr-L-Har amide (Ac-[Nle][dCha][Aze][dY][hArg]-NH2; SMILES CCCC[C@H](NC(C)=O)C(=O)N[C@H](CC1CCCCC1)C(=O)N1CC[C@H]1C(=O)N[C@H](Cc1ccc(O)cc1)C(=O)N[C@@H](CCCCNC(=N)N)C(N)=O) [Example 27]
Thrombin [2]; peptide concentration of 250 nM
  inhibition of the amidase activity of the thrombin: 89%

## N-acetyl-D-Val-D-His-L-Cha-D-Pro-D-Tyr-L-Arg amide (Ac-[dV][dH][Cha][dP][dY]R-NH2; SMILES CC(=O)N[C@@H](C(=O)N[C@H](Cc1c[nH]cn1)C(=O)N[C@@H](CC1CCCCC1)C(=O)N1CCC[C@@H]1C(=O)N[C@H](Cc1ccc(O)cc1)C(=O)N[C@@H](CCCNC(=N)N)C(N)=O)C(C)C) [Example 3]
Thrombin [2]; peptide concentration of 1 μM
  inhibition of the amidase activity of the thrombin: 51%
